From article PMC9814790
Where no end group is shown, it is not given here. Me3 = trimethyl (trimethylated lysine, Kme3)

Assays:
Experiment in all cases: ITC; H3K4me3 peptide (380 uM) titrated to KDM5A PHD3 fingers (28 uM); for AUX WT-KDM5A 190 uM peptide and 21 uM protein; 20 mM TRIS-HCl pH 7.5, 50 mM NaCl, 1 mM DTT; 19 injections; one set of sites model; 7-9 repeats (AUX WT in replicate)
[1] = biological target: wild-type KDM5A PHD3 finger expressed in E. coli Rosetta BL21 (DE3)pLysS (Homo sapiens) (UniProt P29375)
[2] = biological target: wild-type KDM5A PHD3 finger expressed in the auxotrophic E. coli Castellani and Chalmers strain (Homo sapiens) (UniProt P29375)
[3] = biological target: KDM5A PHD3 finger with 5-fluorotryptophan at Trp18 and Trp28 (Homo sapiens) (UniProt P29375)
[4] = biological target: KDM5A PHD3 finger with 6-fluorotryptophan at Trp18 and Trp28 (Homo sapiens) (UniProt P29375)
[5] = biological target: KDM5A PHD3 finger with 5,6-difluorotryptophan at Trp18 and Trp28 (Homo sapiens) (UniProt P29375)

## ARTK(Me3)QTARKS [H3K4me3 histone peptide (ARTKme3QTARKS)]
[1]
  Kd: 54 nM
  dH: -11.6 kcal/mol
[2]
  Kd: 48 nM
  dH: -11.9 kcal/mol
[3]
  Kd: 49 nM
  dH: -10.9 kcal/mol
[4]
  Kd: 57 nM
  dH: -12.1 kcal/mol
[5]
  Kd: 70 nM
  dH: -11.7 kcal/mol
